Test results as given in a protein production outcome set (Wang et al. 2014).

Test: label from the status in PepcDB records

## MKAKEVSLVALFVALTSVGAQISVSIGPVPLTLQVFFVILAGLVLGPKLGFLSILIYDILGALGIPVFAGFSGGIAHILGPTGGYIIAFPIATFIAGLGRGKVRYLTSLMGLLVIYLIGWMWLARFVGFNKAFILGVLPFIVPDIVKAATAVIIAERLQGNT
  protein production: failed

## MLNYLIFFPLISAFVVLLLNRGGVKVFSVVVSFMILALNLDTFADFLQGVSFDYNLSFKILKFFSFHVGVDSIALVLMLLSSLMIFLSFLFLKLEQKALISCIFFLEFAIMGLFSAKDGLLFYIFWEFSLLPLLYIMGVYGKDFRAGVKFFIYAFAGSILMLVALIYQAYLNYQLLNIFTFDLEIWKNNASAANFTEQLLLFGAFFIAFAIKAPLFPLHTWAPKVYANSPILVSVMLVVFKMAPFGFLLFCLPLFPDASVYFMPLIVALCIVSIVYNALIAYRAENIKELIAYSSISHLGVMILGIFSLNALGISGAVFYMFAHGIVTGTLFLMVELLYQRYHTYDISFYHSLAKKAPLFSIFFMLILLASVSLPLTVSFVGEFLILLGIAKINLFYALLAGLVIILGAIYMFAVFRKIFFMQKQSFIEGFSLRFREIVALVCIVVMIFGLGLMPNILLKPIQKDVDNLIKTMNIRAVEQNTLDFLSKIGEANVK
  protein production: failed

## MADLINILNHFVQEQPEAVAVRHTNDELTYKQLDEESSKLAHLLQDSKKPMILYGHMSPYMIVGMIGAIKSGCGYVPIDTSVPKERVNMIIDKVQPEIIFNTSDETLEQTNAQVLKVSDIQDSQYPIVFDSQMKQNDVVYTIFTSGSTGEPKGVQIEYASLNEFAEWMVSLNKTGTGKEWLNQAPFSFDLSVMAIYPCLTSGGTLNLVDKDMIKKPKLLNEMLVQTPMNVWVSTPSFIEMCLLLPNLNEQQYSSLKQFFFCGEILPHKTAKALVERFPNSMIYNTYGPTEATVAVTSIQITEEILNQYNPLPVGVARPGTKLFATEEGELVIEGQSVSLGYLKNEEKTTAVFNFEDGVRTYHTGDKAKIEDGLWFIQGRIDFQIKLNGYRMELEEIETQLRQSKHVREAVVVPVYKNGKVIHLIGAVVPTEPVEDNLAMTTHIKHELKSRLPEYMIPRKFEWMEQLPLTSNGKLDRKKIAEVVNG
  protein production: failed

## MNQSIIFTEQLTWDVQLSAIHFTAQQQGMVIDCYIGQKVLEHLAAEKINNSEQALSLFEQFRFDIEEQAEKLIEQEAFDVQGHIQVERVD
  protein production: not failed

## MNHVAVIGGGIIGASWAVVFARRGLEVTIVERDAACLAGLPARLAGMIERSASLLGAGEQPGDVAARIGATDALAAAVGRADYVQEAVSENLALKRTLFAELDALAPAHALLASSTSTYGASQFTEALAGRARCLVAHPMTPPHLSPVVEMAASAWTDPQVLAGAEAFMRSLGQHPVRIRKEIPGFVLNRLQGALLMEMFRVIADDVISPADADALISQGLGLRWATLGPLEGVDLNAPGGIADYLQRYGHIFNDMAVGQGLPAPVDAELISALDGAMRAALPLERLEAKRGWRDRAIAGVRVALHDYTGEKPLEHHHHHH
  protein production: failed

## IYLYATATGEVRQMHGITVDRERERRVPDHHQLDSDTTTHSHSVKNQEYYKLLHENDTWKLSQSLKDRPFVALNPTRKAQMLAHLCNDLLMNKAVLRQIDGSLETCAQMRKEKYMTDMKVRKYKALHMRKARIEAYERAQAEREAAMQALM
  protein production: failed

## MPVILCPAAEESSGLMMKSAETASLTVSHNELQAMAYTDPLTGLGNRNRMRDKVLQISAERASDPAPFTIGIANLDSFKPINDLFGSSAGDEILCQVAHRLRACIPDGALVTRHDGDEFAFVLPLIFERASAEKFGQMIREVLSAPYDLGDRNVRLSASFGFAIYPFAGEDCEELLKSAETALYRSKRRGRGQITVYSREIAQEMKRATQLEQALRNAIISDAIDVHFQPIVSLANNQVVGFEALARWNDPDLGFVSPGVFVPLAEERGFIDALSEALLRKAAEAALSWPRELFLSFNLSSAQLMDPGTSGSILSILGRVGFDPHRLELEITETAVMGSADTAHRIIADLRAAGVRISLDDFGTGQSSLGRLRDFIFDKIKIDRAFVSRINSDRASEHIIKAILSLCEGLELEVVAEGIEDYAEAVKLRTLGCGMGQGYHFGRPADGIATLRFLHENYYDMAPAERVSA
  protein production: failed

## MKEIVTIENVSFNYHNRAVFKDFNLSIQEGDFLCVLGESGSGKSTLLGLILGLLKPSLGSVKIFNETLSNNAFLRQKIGYIAQGNSLFSHLNAMQNMTFCLNLQGINKQAAQKEAKALALKMGLDESLMDKFPNELSGGQAQRVGIIRGIIHRPELILLDEPFSALDSFNRKNLQDLIKEIHQNSHATFIMVTHDESEAQKLATKTLEIKALKQEQ
  protein production: failed

## LSDPNLVLFYVKNPAKSEEFYKNLLDTQPIESSPTFAMFVMKTGLRLGLWAQEEIEPKAHQTGGGMELSFQVNSNEMVDEIHRQWSDKEISIIQPPTQMDFGYTFVGVDPDEHRLRIFCLKRT
  protein production: not failed

## MTATPGTTVPAPIMQTTDNSLTWLLQNLLDRTPGTRHALVLSRDGLRLCWTEHLTLDRADQLAAICSGIQALAQGASVEFGNGTGGVRHSMTEFHGGLLFIVEAGEGAHLAVVAVEDADPGVVGHQMTELVEQIGEHLRAEPRHAVPGGSSS
  protein production: failed

## MGSSHHHHHHSSGRENLYFQGMAATAREDGASGQERGQRGCEHYDRGCLLKAPCCDKLYTCRLCHDNNEDHQLDRFKVKEVQCINCEKIQHAQQTCEECSTLFGEYYCDICHLFDKDKKQYHCENCGICRIGPKEDFFHCLKCNLCLAMNLQGRHKCIENVSRQNCPICLEDIHTSRVVAHVLPCGHLLHRTCYEEMLKEGYRCPLCMHSALDMTRYWRQLDDEVAQTPMPSEYQNMTVDILCNDCNGRSTVQFHILGMKCKICESYNTAQAGGRRISLDQQ
  protein production: failed

## MTISNGDVKSETCNNGSSEKKPFRIFVGYDPREDLAYQVCHHSITKRSSIPVEITPIIQSDLRKKGLYWRERGQLESTEFSFSRFLTPHLSDYQGWAMFVDCDFLYLADIKELTDLIDDKYAIMCVQHDYTPKETTKMDGAVQTVYPRKNWSSMVLYNCGHPKNKTLSPEIVNTQTGAFLHRFQWLEDEEIGSIPFVWNFLEGHNRVVEKDPTTQPKAVHYTRGGPWFDAWKDCEFADLWLNEMEEYNKENKKEADNAK
  protein production: failed

## MNDDSQDKIIHDIRIQLRKAATELSRWKLYGSSKWAAEALAGLAEAIDVDQTHSLADESPLRNKQGVPKQMFEIPQNGFGLSETEYDLYLLGSTLFDAKEFDRCVFFLKDVTNPYLKFLKLYSKFLSWDKKSQESMENILTTGKFTDEMYRANKDGDGSGNEDINQSGHQRANLKMVSNEHESQSNISSILKEINTFLESYEIKIDDDEADLGLALLYYLRGVILKQEKNISKAMSSFLKSLSCYSFNWSCWLELMDCLQKVDDALLLNNYLYQNFQFKFSENLGSQRTIEFNIMIKFFKLKVFEELNGQLEDYFEDLEFLLQVFPNFTFLKAYNATISYNNLDYVTAESRFDDIVKQDPYRLNDLETYSNILYVMQKNSKLAYLAQFVSQIDRFRPETCCIIANYYSARQEHEKSIMYFRRALTLDKKTTNAWTLMGHEFVELSNSHAAIECYRRAVDICPRDFKAWFGLGQAYALLDMHLYSLYYFQKACTLKPWDRRIWQVLGECYSKTGNKVEAIKCYKRSIKASQTVDQNTSIYYRLAQLYEELEDLQECKKFMMKCVDVEELLEGIVTDETVKARLWLAIFEIKAGNYQLAYDYAMGVSSGTSQEIEEARMLARECRRHM
  protein production: failed

## MALRNVPFRSEVLGWDPDSLADYFKKLNYKDCEKAVKKYHIDGARFLNLTENDIQKFPKLRVPILSKLSQEINKNEERRSIFTRKPQVPRFPEETESHEEDNGGWSSFEEDDYESPNDDQDGEDDGDYESPNEEEEAPVEDDADYEPPPSNDEEALQNSILPAKPFPNSNSMYIDRPPSGKTPQQPPVPPQRPMAALPPPPAGRNHSPLPPPQTNHEEPSRSRNHKTAKLPAPSIDRSTKPPLDRSLAPFDREPFTLGKKPPFSDKPSIPAGRSLGEHLPKIQKPPLPPTTERHERSSPLPGKKPPVPKHGWGPDRRENDEDDVHQRPLPQPALLPMSSNTFPSRSTKPSPMNPLPSSHMPGAFSESNSSFPQSASLPPYFSQGPSNRPPIRAEGRNFPLPLPNKPRPPSPAEEENSLNEEWYVSYITRPEAEAALRKINQDGTFLVRDSSKKTTTNPYVLMVLYKDKVYNIQIRYQKESQVYLLGTGLRGKEDFLSVSDIIDYFRKMPLLLIDGKNRGSRYQCTLTHAAGYP
  protein production: not failed

## MSGSNVAPEDKRMEDRKFRANIPPQTIVFCTVYQTTIGLTNSQHQKIRLASLRLPLLFFQQRQTSAAPPKEDVMNEETLKKIQSNPKYLELVHKKTSLGWTLAIVMLVIYYGYILVLAFAPSLLGKPLYQGATMTVGIPVGVCIILSAFVLTGIYVRRANQEFDPLTQQIVEEAK
  protein production: failed

## MNEIILITGAYGMVGQNTALYFKKNKPDVTLLTPKKSELCLLDKDNVQAYLKEYKPTGIIHCAGRVGGIVANMNDLSTYMVENLLMGLYLFSSALDSGVKKAINLASSCAYPKFAPNPLKESDLLNGSLEPTNEGYALAKLSVMKYCEYVSAEKGVFYKTLVPCNLYGEFDKFEEKIAHMIPGLIARMHTAKLKNEKEFAMWGDGTARREYLNAKDLARFISLAYENIASIPSVMNVGSGVDYSIEEYYEKVAQVLDYKGVFVKDLSKPVGMQQKLMDISKQRALKWELEIPLEQGIKEAYEYYLKLLEV
  protein production: failed

## MALNVAPVRDTKWLTLEVCRQFQRGTCSRSDEECKFAHPPKSCQVENGRVIACFDSLKGRCSRENCKYLHPPTHLKTQLEINGRNNLIQQKTAAAMLAQQMQFMFPGTPLHPVPTFPVGPAIGTNTAISFAPYLAPVTPGVGLVPTEILPTTPVIVPGSPPVTVPGSTATQKLLRTDKLEVCREFQRGNCARGETDCRFAHPADSTMIDTSDNTVTVCMDYIKGRCMREKCKYFHPPAHLQAKIKAAQHQANQAAVAAQAAAAAATVMAFPPGALHPLPKRQALEKSNGTSAVFNPSVLHYQQALTSAQLQQHAAFIPTVPMMHSATSATVSAATTPATSVPFAATATANQIILK
  protein production: not failed

## MLIATFFFTSHFSRAKQPMWYNGLLDLSVWQVIAVTLAMTHVTIVGVTVYLHRYSAHRSLELNAGLKHFFRFWLWLTTAQNTREWTAIHRKHHAKCETVDDPHSPVVKGLSTVLRKGAELYREEAQNQDTLRIYGKNCPEDWIERNLYSRYKMLGIVLMAVIDLALFGAIGITVWAIQMMWIPFWAAGVVNGLGHAVGYRNFECRDAATNLVPWGIVIGGEELHNNHHTYPNSAKLSVKPWEFDMGWAWIKLFSFLRLAKVQRVAPIAHRVEGKGHIDMDTAMAILNNRFQIMAQYRKLVIAPLVTQELAKADESVRHQFRRAKRLLSRETSLLDDKHHLRIQTMLEHSHALKVIYEKRLALQQIWVKTSSNGHDMLSAMKEWIHEAEASGIQSLREFADQLKTYSLRPVHA
  protein production: failed

## MNSEQADILDLLSGHTDDTTIERLAFECLLTNMTDDRVVSLMNILGWQGDFNCFAIGGVPSASLASTSLAIRKAVRDLGGEHVVIGTYGTFLLALACQMGAVTPEVTCTAVMPAFSEDEPLYLSPVRSGVAGASHALRETMFSLQAAPALSTPSRPLRADELLPERALLGDDYAREELYRNVYQVLRGENPDDPTYLTVSTFLKYGSSLENTAKELNVHPNTVRYRLKRAAETTGWDATDPRDAYVLTTALAIGRMRDR
  protein production: not failed

## MSTPETYKRSALNPETSLLLFLVPNPSNLTPISYTLTIPPPHEKTMLDKHGLLTQPISDVLRKLTTPMVFGMVAILLFNLVDTFFISLLGTDALAAVSFTFPVTFAVNCITMGIGVGLSASIGHLLGEGHSKHAAELTTHGIILAISLILIACALGFFTIDPLFTLLGAEDKLLPLIDEYMSIWYLTIPLLVIPMSSNSAIRATGDTKTPAKIMMLAGLINGILDPLLIFGYGPFPELGIQGAAIASAISWLGALIASFYVLTHKVKLLALPNKNTLISDWKQILTIGSPAALSNALNPISGAILMMMLASQGTVAVASYGAAQRVESLMLLVIMALTSSLSPLVAQNLGAKQPERVKEAIFLAIKFSVAFQLFLYILIVPLSIPISHLFSQDDAVQHGLWMYLICVPFSYGFQGIVMVLVSSLNAMKKPLYSFSWSFMRLFVFTLPTAWIGSQIYGMEGLFIGIAMGNVMGGISAFWYARTRIRFEDAALEERGDTKS
  protein production: failed
